We go through 3 molecules from patent US7510715 (US Dept. of Health and Human Services, dated 2009).

Sequences and labels used below:
B2: human CCR5 on cells (CEM.NKR-CCR5 transfectants; PM1 T cells; PBMCs; macrophages) (receptor)
chain: not shown
notes: whole, on cells; also called hCCR5

In assay [1] the target is B2. The assay is described as follows: saturation binding of 125I-C-18 to CEM.NKR-CCR5 cells, 90 minutes at 4° C.
In the next assay the target is T1, human cyclophilin A (human, UniProt P62937 1-165).
T1 construct: also called recombinant human cyclophilin
The assay is described as follows: competition with 125I-C-18 on CEM.NKR.CCR5 cells (method in paragraph 111).

Assay [2] has as its target B2. The assay is described as follows: saturation binding of 125I-labeled human MIP-1β to CEM.NKR-CCR5 cells, 90 minutes at 4° C.
Protocol: The bound fraction was then measured and the dissociation constant for ligand binding calculated using a Graph Pad Prism software program (Mackiev, Cupertino, Calif.). […] Cells were then washed and the bound fraction measured radioactively.

T1 sequence (P62937 whole entry): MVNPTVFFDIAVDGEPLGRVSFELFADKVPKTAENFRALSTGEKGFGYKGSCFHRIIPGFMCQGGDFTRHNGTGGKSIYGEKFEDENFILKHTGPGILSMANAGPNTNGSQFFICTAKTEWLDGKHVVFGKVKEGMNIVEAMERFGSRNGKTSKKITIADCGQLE

B1: Toxoplasma gondii cyclophilin-18 (C-18), recombinant (ligand)
chain: not shown
In turn, B1 returned a Kd in assay [1] of 3.65 nM.
With B2, the binding result in the assay with human cyclophilin A is “no binding”.

B3: human macrophage inflammatory protein 1β (MIP-1β) (ligand, UniProt P13236 24-92, looked up)
chain: APMGSDPPTACCFSYTARKLPRNFVVDYYETSSLCSQPAVVFQTKRSKQVCADPSESWVQEYVYDLELN
notes: also called MIP-1B; human MIP-1 B
For B3, the Kd in assay [2] was 0.559 nM.

One may read the Kd as the free concentration of one partner at which half of the binding sites on the other are occupied at equilibrium, for simple one-to-one binding. A high value points to lower affinity.
